Laboratory results published in the Human Domainome abundance scans (Beltran et al. 2025).

B1: Unconventional myosin-Ie, residues 1051 to 1108; numbered along this chain, Q12965 (parent)
chain: PQVPQCKALYAYDAQDTDELSFNANDIIDIIKEDPSGWWTGRLRGKQGLFPNNYVTKI

Variants of: B1
Assay: abundance fitness (aPCA) (normalised: wild type 0, dead -1); higher = more abundant; growth selection in yeast, the domain comes from the species named
Settings: Homo sapiens

Abundance fitness: each site, then its substitutions
Q47: V 0.041; C -0.236; T 0.005; H -0.149; P -0.32; F -0.167; K 0.007; N -0.507; M -0.169; D -0.417; S -0.16; Y 0.248; R -0.099; I -0.216; G -0.451; W -0.111; A -0.222; L -0.194; E -0.066
G48: Q -0.826; W -0.609; M -0.579; F -0.598; V -0.756; R -0.646; K -0.718; N -0.626; C -0.477; T -0.91; D -0.885; A -0.171; L -0.399
K32: D -0.242; W -0.205; M -0.1; N -0.009; V -0.119; I 0.028; C -0.14; Q -0.139; A -0.056; H 0.047; L -0.122; Y -0.105; R -0.042; E 0.013; G -0.097; F -0.373; T -0.173
G41: K -1.03; R -0.906; P -0.826; Y -0.88; V -0.9; A -0.8; L -0.474; D -0.899; S -0.998; C -0.813; F -0.756; Q -0.767; N -0.87; H -0.83
K46: I -0.351; Y -0.351; T -0.146; G -0.411; S -0.073; V -0.051; C -0.099; H -0.172; P -0.715; F -0.364; R -0.01; D -0.33; M 0.054; W -0.569; L -0.152
R42: L -0.161; I -0.356; D -0.254; H -0.15; E -0.049; G -0.125; W -0.06; N -0.005; K 0.104; F -0.193; M -0.394; Q -0.028; P -0.897; A -0.013; Y -0.366; T -0.114
I31: F -0.462; Q -0.48; T -0.2; D -0.359; K -0.478; C -0.089; A -0.346; V -0.054; E -0.26; S -0.58; N -0.891; Y -0.25; M -0.051; P -0.87; L 0.001; W -0.479
L49: N -0.428; C -0.025; I -0.219; K 0.036; W -0.157; P -0.656; E -0.242; T -0.288; D -0.319; V -0.015; Q -0.151; A -0.236; R 0.09; G -0.16; H -0.317
S36: K 0.147; D -0.033; E -0.279; Q -0.024; G -0.031; R -0.073; N -0.381; L -0.341; F -0.279; P -0.883; Y -0.349; M -0.284; T -0.085
G37: Q -0.448; R -0.574; L -0.617; Y -0.811; P -0.54; M -0.545; H -0.883; A -0.573; W -0.677; F -0.797; I -0.52; T -0.375; V -0.781; C -0.584; K -0.728; E -0.481
D34: S -0.126; I -0.939; P -0.15; A -0.031; R -0.173; E 0.06; L -0.3; Q -0.431; Y -0.27; N 0.014; T -0.123; H -0.264; K -0.445
